This is an account of results in US20110027907A1 (AUCKLAND UNISERVICE, published 2011).

The experiment has as its target T1, recombinant SSL7 (GL1 S. aureus Greenlane), wild type (Staphylococcus aureus).
T1 construct: also called rSSL7; SET1 GL1
In words: co-crystal structure.

B1: recombinant IgA Fc (Cys242 to Pro455 of human IgA1) (other)
chain: CHPRLSLHRPALEDLLLGSEANLTCTLTGLRDASGVTFTWTPSSGKSAVQGPPERDLCGCYSVSSVLPGCAEPWNHGKTFTCTAAYPESKTPLTATLSKSGNTFRPEVHLLPPPSEELALNELVTLTCLARGFSPKDVLVRWLQGSQELPREKYLTWASRQEPSQGTTTFAVTSILRVAAEDWKKGDTFSCMVGHEALPLAFTQKTIDRLAGKP
notes: range 242-455
Turning to B1, the binding result is “binds”.
